{"source": "IntAct's records for PubMed 22854040", "parents": {"B1": {"name": "Ras-related protein Rab-8A (Homo sapiens), P61006 (parent)", "chain": "MAKTYDYLFKLLLIGDSGVGKTCVLFRFSEDAFNSTFISTIGIDFKIRTIELDGKRIKLQIWDTAGQERFRTITTAYYRGAMGIMLVYDITNEKSFDNIRNWIRNIEEHASADVEKMILGNKCDVNDKRQVSKERGEKLALDYGIKFMETSAKANINVENAFFTLARDIKAKMDKKLEGNSPQGSNQGVKITPDQQKRSSFFRCVLL"}}, "data": [{"variants_of": "B1", "settings": "with tfr1_human TFRC", "values": [{"variant": "T22N", "effect of a mutation on the interaction": "decreasing interaction"}]}]}
